*1 amine or outer side, *2 acyl side, *3 side chain or, on linkers, in order; H or OH if unused. Where no end group is shown, it is not given here. Side-chain parts run from the residue outwards. [ ]: non-standard residue; d: D form. The star is where a group is joined. C20 diacid = O=C(O)CCCCCCCCCCCCCCCCCCC(=O)*; αMePhe(2-F) = C[C@](N)(Cc1ccccc1F)C(=O)O; γGlu = O=C(O)[C@H](CCC(=O)[*:2])N[*:1]; AEEA = NCCOCCOCC(=O)O; Aib = CC(C)(N)C(=O)O
T1: human GIP receptor (human, UniProt P48546 22-466)
T1 sequence (looked up): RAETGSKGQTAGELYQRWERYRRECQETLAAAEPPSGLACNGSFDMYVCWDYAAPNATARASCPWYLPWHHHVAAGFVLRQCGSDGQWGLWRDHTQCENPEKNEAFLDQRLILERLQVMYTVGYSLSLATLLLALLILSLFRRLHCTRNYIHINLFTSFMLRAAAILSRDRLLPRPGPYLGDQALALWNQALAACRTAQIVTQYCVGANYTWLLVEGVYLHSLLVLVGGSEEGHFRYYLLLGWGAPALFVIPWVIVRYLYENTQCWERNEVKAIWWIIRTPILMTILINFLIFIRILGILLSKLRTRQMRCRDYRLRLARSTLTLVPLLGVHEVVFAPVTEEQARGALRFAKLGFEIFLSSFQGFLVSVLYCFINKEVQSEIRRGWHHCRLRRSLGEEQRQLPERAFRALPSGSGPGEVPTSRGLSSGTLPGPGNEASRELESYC

B1: Example 1 (peptide)
peptide: YXQGTXTSDYSILLDKKAQXAFIEYLLEGGPSSGAPPPS
modifications: Aib at 2; αMeF at 6; K17 conjugated at the epsilon-amino group with (2-[2-(2-amino-ethoxy)-ethoxy]-acetyl)2-(γGlu)-CO-(CH2)18-CO2H; Aib at 20; C-terminal amide
notes: Synthetic acylated peptide
B2: Example 3 (peptide)
peptide: YXHGTXTSDYSILLDKKAQXAFIEYLLEGGPSSGAPPPS
modifications: Aib at 2; αMeF(2F) at 6; K17 conjugated at the epsilon-amino group with (2-[2-(2-amino-ethoxy)-ethoxy]-acetyl)2-(γGlu)-CO-(CH2)18-CO2H; Aib at 20; C-terminal amide
notes: Synthetic acylated peptide
B3: Example 4 (peptide)
peptide: YXQGTXTSDYSILLDKKAQXAFIEYLLEGGPSSGAPPPS
modifications: Aib at 2; αMeF(2F) at 6; K17 conjugated at the epsilon-amino group with (2-[2-(2-amino-ethoxy)-ethoxy]-acetyl)-(γGlu)-CO-(CH2)18-CO2H; Aib at 20; C-terminal amide
notes: Synthetic acylated peptide
B4: Example 5 (peptide)
peptide: Y[Aib]QGT[αMePhe(2-F)]TSDYSILLDKK([AEEA-γGlu-C20 diacid])AQQAFIEYLLEGGPSSGAPPPS-NH2
modifications: N-terminus assumed
SMILES: CC[C@H](C)[C@H](NC(=O)[C@H](Cc1ccccc1)NC(=O)[C@H](C)NC(=O)[C@H](CCC(N)=O)NC(=O)[C@H](CCC(N)=O)NC(=O)[C@H](C)NC(=O)[C@H](CCCCNC(=O)COCCOCCNC(=O)CC[C@H](NC(=O)CCCCCCCCCCCCCCCCCCC(=O)O)C(=O)O)NC(=O)[C@H](CCCCN)NC(=O)[C@H](CC(=O)O)NC(=O)[C@H](CC(C)C)NC(=O)[C@H](CC(C)C)NC(=O)[C@@H](NC(=O)[C@H](CO)NC(=O)[C@H](Cc1ccc(O)cc1)NC(=O)[C@H](CC(=O)O)NC(=O)[C@H](CO)NC(=O)[C@@H](NC(=O)[C@](C)(Cc1ccccc1F)NC(=O)[C@@H](NC(=O)CNC(=O)[C@H](CCC(N)=O)NC(=O)C(C)(C)NC(=O)[C@@H](N)Cc1ccc(O)cc1)[C@@H](C)O)[C@@H](C)O)[C@@H](C)CC)C(=O)N[C@@H](CCC(=O)O)C(=O)N[C@@H](Cc1ccc(O)cc1)C(=O)N[C@@H](CC(C)C)C(=O)N[C@@H](CC(C)C)C(=O)N[C@@H](CCC(=O)O)C(=O)NCC(=O)NCC(=O)N1CCC[C@H]1C(=O)N[C@@H](CO)C(=O)N[C@@H](CO)C(=O)NCC(=O)N[C@@H](C)C(=O)N1CCC[C@H]1C(=O)N1CCC[C@H]1C(=O)N1CCC[C@H]1C(=O)N[C@@H](CO)C(N)=O
notes: Synthetic acylated peptide
B5: Example 6 (peptide)
peptide: Y[Aib]QGT[αMePhe(2-F)]TSDYSILLDKK([AEEA-γGlu-C20 diacid])AQHAFIEYLLEGGPSSGAPPPS-NH2
modifications: N-terminus assumed
SMILES: CC[C@H](C)[C@H](NC(=O)[C@H](Cc1ccccc1)NC(=O)[C@H](C)NC(=O)[C@H](Cc1c[nH]cn1)NC(=O)[C@H](CCC(N)=O)NC(=O)[C@H](C)NC(=O)[C@H](CCCCNC(=O)COCCOCCNC(=O)CC[C@H](NC(=O)CCCCCCCCCCCCCCCCCCC(=O)O)C(=O)O)NC(=O)[C@H](CCCCN)NC(=O)[C@H](CC(=O)O)NC(=O)[C@H](CC(C)C)NC(=O)[C@H](CC(C)C)NC(=O)[C@@H](NC(=O)[C@H](CO)NC(=O)[C@H](Cc1ccc(O)cc1)NC(=O)[C@H](CC(=O)O)NC(=O)[C@H](CO)NC(=O)[C@@H](NC(=O)[C@](C)(Cc1ccccc1F)NC(=O)[C@@H](NC(=O)CNC(=O)[C@H](CCC(N)=O)NC(=O)C(C)(C)NC(=O)[C@@H](N)Cc1ccc(O)cc1)[C@@H](C)O)[C@@H](C)O)[C@@H](C)CC)C(=O)N[C@@H](CCC(=O)O)C(=O)N[C@@H](Cc1ccc(O)cc1)C(=O)N[C@@H](CC(C)C)C(=O)N[C@@H](CC(C)C)C(=O)N[C@@H](CCC(=O)O)C(=O)NCC(=O)NCC(=O)N1CCC[C@H]1C(=O)N[C@@H](CO)C(=O)N[C@@H](CO)C(=O)NCC(=O)N[C@@H](C)C(=O)N1CCC[C@H]1C(=O)N1CCC[C@H]1C(=O)N1CCC[C@H]1C(=O)N[C@@H](CO)C(N)=O
notes: Synthetic acylated peptide
B6: Example 2 (peptide)
peptide: YXQGTXTSDYSIXLDKKAQXAFIEYLLEGGPSSGAPPPS
modifications: Aib at 2; αMeF at 6; αMeL at 13; K17 conjugated at the epsilon-amino group with (2-[2-(2-amino-ethoxy)-ethoxy]-acetyl)2-(γGlu)-CO-(CH2)18-CO2H; Aib at 20; C-terminal amide
notes: Synthetic acylated peptide

Tests used:
human GIP receptor [1] = molecular target: T1, human GIP receptor; test: cell-based or functional assay
human glucagon receptor [2] = molecular target: T2, human glucagon receptor (human, UniProt P47871 26-477); test: cell-based or functional assay
T2 sequence (P47871 26-477): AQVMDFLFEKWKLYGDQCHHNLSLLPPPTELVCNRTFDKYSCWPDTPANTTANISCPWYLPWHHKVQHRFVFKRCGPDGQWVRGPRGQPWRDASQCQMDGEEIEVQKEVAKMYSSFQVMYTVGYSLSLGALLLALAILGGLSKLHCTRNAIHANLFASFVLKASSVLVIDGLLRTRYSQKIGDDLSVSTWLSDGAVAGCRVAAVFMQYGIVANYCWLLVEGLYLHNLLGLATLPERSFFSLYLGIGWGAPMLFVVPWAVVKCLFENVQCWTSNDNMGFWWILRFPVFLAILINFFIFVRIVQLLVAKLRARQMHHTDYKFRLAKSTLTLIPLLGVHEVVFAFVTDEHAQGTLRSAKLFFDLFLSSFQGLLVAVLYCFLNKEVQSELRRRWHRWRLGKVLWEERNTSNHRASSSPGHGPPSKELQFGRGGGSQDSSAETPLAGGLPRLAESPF

human GLP-1 receptor [3] = molecular target: T3, human GLP-1 receptor (human, UniProt P43220 24-463); test: cell-based or functional assay
human GIP receptor [4] = molecular target: T1, human GIP receptor; test: radioligand competition SPA, membranes of HEK293 cells overexpressing human GIPR
Method: (§1) Radioligand competition binding assays are run to determine the equilibrium dissociation constant for Example compounds and comparator molecules.
(§2) The assays are performed in the presence of bacitracin as a non-specific blocking agent to prevent acylated moieties of test analogs from binding to protein components used in standard assay buffers (e.g., albumin).
(§3) Competition curves are plotted as the percent specific inhibition (y-axis) versus log concentration of compound (x-axis) and analyzed using a four parameter nonlinear regression fit with variable slope (ABase or Genedata).

human GIP receptor [5] = molecular target: T1, human GIP receptor; test: cell-based or functional assay; remark: listed apart in the source
human glucagon receptor [6] = molecular target: T2, human glucagon receptor; test: cell-based or functional assay; remark: listed apart in the source
human GLP-1 receptor [7] = molecular target: T3, human GLP-1 receptor; test: cell-based or functional assay; remark: listed apart in the source
human GLP-1 receptor [8] = molecular target: T3, human GLP-1 receptor; test: radioligand competition SPA, membranes of HEK293 cells overexpressing human GLP-1R
Method: as §1, §2, §3

human glucagon receptor [9] = molecular target: T2, human glucagon receptor; test: radioligand competition SPA, membranes of HEK293 cells overexpressing human GcgR
Method: as §1, §2, §3

| Binder | cAMP EC50, in the presence of FBS and BSA (human GIP receptor [1]) [pM] | cAMP EC50, in the presence of FBS and BSA (human glucagon receptor [2]) [pM] | cAMP EC50, in the presence of FBS and BSA (human GLP-1 receptor [3]) [pM] | Ki (human GIP receptor [4]) [pM] | cAMP EC50, in the presence of 0.1% casein (human GIP receptor [5]) [pM] | cAMP EC50, in the presence of 0.1% casein (human glucagon receptor [6]) [pM] | cAMP EC50, in the presence of 0.1% casein (human GLP-1 receptor [7]) [pM] | Ki (human GLP-1 receptor [8]) [pM] | Ki (human glucagon receptor [9]) [pM] |
| --- | --- | --- | --- | --- | --- | --- | --- | --- | --- |
| B1 | 1820 | 6330 | 12600 | 27.8 | 22.6 | 158 | 112 | 2510 | 955 |
| B2 | 1370 | 3460 | 13100 | 68.4 | 21.5 | 30.1 | 104 | 1660 | 469 |
| B3 | 1370 | 1780 | 10600 | 83.2 | 32.1 | 29.6 | 145 | 1210 | 637 |
| B4 | 1910 | 1870 | 13000 | 34.7 | 30.6 | 34.3 | 103 | 1170 | 419 |
| B5 | 1410 | 1760 | 8940 | 38.8 | 34.9 | 29.3 | 115 | 822 | 382 |
| B6 | 1340 | 4750 | 11600 | 41.3 | 32.9 | 96 | 106 | 2410 | 1490 |
